We go through seven molecules from patent US10829799 (UNIVERSITY COURT OF THE UNIVERSITY OF DUNDEE, dated 2020).

Assay [1] addresses T1, human Ub E1 activating enzyme UBA1 (recombinant, wild type) (human, UniProt P22314 1-1058).
T1 construct: Catalytic cysteine C632
T1 sequence (looked up): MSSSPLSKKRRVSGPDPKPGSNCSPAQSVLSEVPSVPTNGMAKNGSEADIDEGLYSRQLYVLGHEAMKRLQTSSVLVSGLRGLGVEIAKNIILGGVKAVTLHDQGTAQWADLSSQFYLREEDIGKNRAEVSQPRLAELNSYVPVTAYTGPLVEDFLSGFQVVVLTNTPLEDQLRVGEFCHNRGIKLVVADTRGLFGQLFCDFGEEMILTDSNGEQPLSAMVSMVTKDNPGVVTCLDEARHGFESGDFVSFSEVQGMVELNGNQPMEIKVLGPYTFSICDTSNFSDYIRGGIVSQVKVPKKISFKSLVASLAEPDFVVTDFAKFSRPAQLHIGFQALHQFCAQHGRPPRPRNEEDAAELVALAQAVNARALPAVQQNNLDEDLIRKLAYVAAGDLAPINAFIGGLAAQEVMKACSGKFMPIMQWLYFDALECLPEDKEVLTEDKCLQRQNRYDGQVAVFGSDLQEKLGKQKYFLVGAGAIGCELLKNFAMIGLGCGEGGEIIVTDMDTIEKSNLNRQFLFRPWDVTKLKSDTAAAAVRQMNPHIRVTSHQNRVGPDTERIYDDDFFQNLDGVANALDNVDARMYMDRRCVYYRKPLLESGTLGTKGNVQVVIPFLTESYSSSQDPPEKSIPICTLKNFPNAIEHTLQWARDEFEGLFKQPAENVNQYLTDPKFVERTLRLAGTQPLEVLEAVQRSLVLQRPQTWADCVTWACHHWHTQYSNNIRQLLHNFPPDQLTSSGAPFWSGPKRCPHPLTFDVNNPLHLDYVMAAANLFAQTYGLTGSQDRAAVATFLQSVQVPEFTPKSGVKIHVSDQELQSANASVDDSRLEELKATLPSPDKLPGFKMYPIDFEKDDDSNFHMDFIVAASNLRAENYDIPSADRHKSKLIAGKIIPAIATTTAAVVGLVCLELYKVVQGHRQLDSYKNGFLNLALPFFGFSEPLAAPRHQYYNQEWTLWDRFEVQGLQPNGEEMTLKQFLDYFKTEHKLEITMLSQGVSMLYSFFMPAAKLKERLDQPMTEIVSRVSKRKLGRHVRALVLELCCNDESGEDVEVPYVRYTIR
Briefly: covalent activity-based labelling, SDS-PAGE (FIG. 3B). How it is done:
(§1) E2 probes (14 μM) were mixed with E1 enzyme (3.5 μM) and diluted 10× reaction buffer (500 mM Na_2HPO_4 pH 8) or 10×Ub-ATP buffer (500 mM Na_2HPO_4 pH 8, 20 μM ubiquitin, 20 mM ATP) to a final volume of 15-50 μL. Reactions were incubated at 30° C. and 15 μL aliquots were taken at 1 and 5 h time points which were quenched with 5 μL of reducing SDS-gel loading buffer (NuPAGE LDS loading buffer (4×), 715 mM 2-mercaptoethanol). The quenched reaction solutions were boiled for 5 minute at 100° C. and then 4 μL was analysed by SDS-PAGE (NuPAGE Bis-Tris, 4-12%).

For assay [2], the target named is T1, human Ub E1 activating enzyme UBA1 …. The experiment in a line: covalent activity-based labelling, UBA1 3.5 uM with 4 eq. of probe, 30 C, reducing SDS-PAGE. How it is done:
as §1

Assay [3] concerns the target T2, endogenous UBA1 in HEK293 protein extract (human, UniProt P22314 2-1058, limits assumed).
T2 construct: In a cell lysate, identified by anti-UBA1 blot and molecular weight
T2 sequence (looked up): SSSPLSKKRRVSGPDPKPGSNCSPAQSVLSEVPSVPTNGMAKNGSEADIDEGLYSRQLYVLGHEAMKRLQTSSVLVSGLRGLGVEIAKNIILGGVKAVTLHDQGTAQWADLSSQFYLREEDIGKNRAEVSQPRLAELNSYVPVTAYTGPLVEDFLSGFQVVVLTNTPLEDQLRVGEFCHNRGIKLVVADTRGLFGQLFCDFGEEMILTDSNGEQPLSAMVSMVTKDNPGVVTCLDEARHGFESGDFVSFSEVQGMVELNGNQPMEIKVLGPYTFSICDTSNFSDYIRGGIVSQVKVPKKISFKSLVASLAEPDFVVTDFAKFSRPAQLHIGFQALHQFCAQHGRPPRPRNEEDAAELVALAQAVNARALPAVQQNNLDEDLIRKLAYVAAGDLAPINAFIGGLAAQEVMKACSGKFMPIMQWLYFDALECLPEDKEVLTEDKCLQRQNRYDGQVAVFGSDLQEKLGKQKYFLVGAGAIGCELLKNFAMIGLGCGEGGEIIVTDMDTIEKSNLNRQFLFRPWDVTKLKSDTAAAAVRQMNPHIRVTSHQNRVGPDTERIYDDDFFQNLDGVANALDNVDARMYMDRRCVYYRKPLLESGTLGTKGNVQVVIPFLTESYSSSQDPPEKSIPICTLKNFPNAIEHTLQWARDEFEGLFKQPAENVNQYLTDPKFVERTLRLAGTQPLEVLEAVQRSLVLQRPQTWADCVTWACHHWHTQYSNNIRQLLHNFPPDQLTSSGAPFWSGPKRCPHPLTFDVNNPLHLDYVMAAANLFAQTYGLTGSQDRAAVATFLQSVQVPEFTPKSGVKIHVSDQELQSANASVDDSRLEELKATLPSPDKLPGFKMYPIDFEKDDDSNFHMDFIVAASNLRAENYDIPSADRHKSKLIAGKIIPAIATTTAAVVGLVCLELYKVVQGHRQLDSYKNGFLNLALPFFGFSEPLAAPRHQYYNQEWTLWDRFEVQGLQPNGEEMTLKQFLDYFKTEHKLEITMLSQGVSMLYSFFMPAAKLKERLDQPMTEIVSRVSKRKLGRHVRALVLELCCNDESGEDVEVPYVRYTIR
The experiment in a line: probe (25 uM) in HEK293 extract (125 ug), 3 h at 30 C, western blot. The protocol: Labelling was quenched by the addition of 1 part 4×LDS loading buffer (Life Technologies) supplemented with 715 mM 2-mercaptoethanol (BME) to 3 parts probe-treated protein extract. Proteins were resolved by SDS-PAGE (10%) and transferred to nitrocellulose membrane (20 V for 40-60 min) by semi-dry transfer using a Novex Semi-dry device (Life Technologies). Membranes were blocked by incubation with 5% milk powder in phosphate buffered saline+0.1% Tween 20 (PBST) for 1 h. His-tagged species were probed with 1:10000 anti-His primary antibody (Clontech) in PBST+5% milk powder for 30 min at room temperature. Detection was carried out by incubation with 1:2500 anti-mouse-HRP conjugated antibody (Cell Signalling Technologies) in PBST+5% milk powder for 1 h at room temperature. ECL Prime substrate (GE Life Sciences) was used for visualization in accordance with the manufacturers protocol. Probing for UBA1 was carried out with anti-UBA1 primary antibody (Sigma E3152) and incubated for 1 h at room temperature. Detection was carried out by incubation with 1:15000 anti-mouse-HRP conjugated antibody (Cell Signalling Technologies) in PBST+5% milk powder for 1 h at room temperature.
We next tested whether E2 probes could label endogenous proteins in a complex proteome. We prepared additional thioacrylonitrile and thiomethyl acrylate probes built on UBE2D1, UBE2D2, UBE2D3 and UBE2H. […] UBE2H was chosen as it only has a single catalytic cysteine. Human embryonic kidney cell (HEK293) extracts (125 μg) were incubated with empirically determined probe concentrations (5-25 μM).
(A western blot detects proteins with antibodies after separation by electrophoresis.)

Assay [4] has as its target T1, human Ub E1 activating enzyme UBA1 …. The experiment in a line: covalent activity-based labelling of UBA1, reducing SDS-PAGE. How it is done:
as §1

Assay [5] deals with T3, UBA7 (ISG15 E1; His-tagged human UBA7) (human, UniProt P41226 1-1012).
T3 construct: not shown: N-terminal 6xHis tag of the pFastBacHTB vector
T3 sequence (looked up): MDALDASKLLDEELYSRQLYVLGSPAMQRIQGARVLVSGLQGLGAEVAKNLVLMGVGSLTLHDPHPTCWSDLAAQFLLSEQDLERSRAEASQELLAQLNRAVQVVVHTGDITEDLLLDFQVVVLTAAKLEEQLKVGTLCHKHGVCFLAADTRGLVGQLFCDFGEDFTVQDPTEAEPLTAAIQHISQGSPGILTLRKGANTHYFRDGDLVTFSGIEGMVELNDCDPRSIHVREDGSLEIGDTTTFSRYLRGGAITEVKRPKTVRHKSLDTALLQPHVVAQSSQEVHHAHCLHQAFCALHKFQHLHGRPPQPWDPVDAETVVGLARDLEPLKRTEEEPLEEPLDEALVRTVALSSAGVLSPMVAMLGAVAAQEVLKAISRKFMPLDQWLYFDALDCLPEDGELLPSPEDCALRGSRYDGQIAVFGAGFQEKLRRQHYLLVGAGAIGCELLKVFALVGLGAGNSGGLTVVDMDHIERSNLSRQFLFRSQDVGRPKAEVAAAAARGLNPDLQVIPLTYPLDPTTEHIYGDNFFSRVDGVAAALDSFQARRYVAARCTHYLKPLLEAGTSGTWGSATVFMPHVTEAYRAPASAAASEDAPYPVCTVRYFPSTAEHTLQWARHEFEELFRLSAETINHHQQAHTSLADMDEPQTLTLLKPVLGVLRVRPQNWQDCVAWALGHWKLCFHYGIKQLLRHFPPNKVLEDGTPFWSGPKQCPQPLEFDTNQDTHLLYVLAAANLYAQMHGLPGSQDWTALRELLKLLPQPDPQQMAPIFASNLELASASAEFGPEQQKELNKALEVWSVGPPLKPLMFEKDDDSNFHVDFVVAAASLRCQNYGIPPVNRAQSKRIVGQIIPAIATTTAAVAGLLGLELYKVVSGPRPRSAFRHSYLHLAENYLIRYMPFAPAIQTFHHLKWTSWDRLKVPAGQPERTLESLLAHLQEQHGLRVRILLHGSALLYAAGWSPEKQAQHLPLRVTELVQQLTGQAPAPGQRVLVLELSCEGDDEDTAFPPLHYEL
Briefly: covalent activity-based labelling, SDS-PAGE (FIG. 3E). How it is done:
as §1

Where a chain is given by its changes, count along the chain named.

B1: UBE2L3**-=CN (enzyme)
chain: MGSSHHHHHHSSGLEVLFQGPGSMAASRRLMKELEEIRKSGMKNFRNIQVDEANLLTWQGLIVPDNPPYDKGAFRIEINFPAEYPFKPPKITFKTKIYHPNIDEKGQVCLPVIAAENWKPATKTDQVIQSLIALVNDPQPEHPLRADLAEEYSKDRKKFSKNAEEFTKKYGEKRPVD
modifications: catalytic cysteine labelled with TDMA 1: thioacrylonitrile warhead
notes: also called UBE2L3** thioacrylonitrile probe
Turning to B1, the binding result in assay [1] is “binds”.

B2: UBE2N-=CN (His-tagged UBE2N labelled with (E)-3-tosylacrylonitrile 1; thioacrylonitrile probe) (enzyme)
chain: MGSSHHHHHHSSGLEVLFQGPGSAGLPRRIIKETQRLLAEPVPGIKAEPDESNARYFHVVIAGPQDSPFEGGTFKLELFLPEEYPMAAPKVRFMTKIYHPNVDKLGRICLDILKDKWSPALQIRTVLLSIQALLSAPNPDDPLANDVAEQWKTNEAQAIETARAWTRLYAMNNI
modifications: cysteine labelled with TDMA 1: thioacrylonitrile (activated vinylsulfide) warhead
notes: E2-based activity-based probe; forms a covalent bisthioether with the catalytic cysteine of the E1; also called Ubc13-=CN
For B2, the binding result in assay [2] and in assay [3] was “binds” each time.

B3: UBE2N-VME (His-tagged UBE2N labelled with (E)-methyl 3-tosylacrylate 2; thiomethyl acrylate probe) (enzyme)
chain: B2 chain
modifications: cysteine labelled with TDMA 2: thiomethyl acrylate warhead
notes: also called Ubc13-VME
In the case of B3, the binding result in assay [4] and in assay [3] was “binds” throughout.

B4: UBE2L6*-=CN (enzyme)
chain: MGSSHHHHHHSSGLEVLFQGPGSMMASMRVVKELEDLQKKPPPYLRNLSSDDANVLVWHALLLPDQPPYHLKAFNLRISFPPEYPFKPPMIKFTTKIYHPNVDENGQICLPIISSENWKPSTKTSQVLEALNVLVNRPNIREPLRMDLADLLTQNPELFRKNAEEFTLRFGVDRPS
modifications: catalytic cysteine labelled with TDMA 1: thioacrylonitrile warhead
With B4, the binding result in assay [5] is given as “binds”.

B5: UBE2L6**-=CN (enzyme)
chain: B4 chain with S114A
modifications: catalytic cysteine labelled with TDMA 1: thioacrylonitrile warhead
As to B5, the binding result in assay [5] is given as “binds”.

B6: UBE2H thioacrylonitrile probe (enzyme)
chain: MGSSHHHHHHSSGLEVLFQGPGSMSSPSPGKRRMDTDVVKLIESKHEVTILGGLNEFVVKFYGPQGTPYEGGVWKVRVDLPDKYPFKSPSIGFMNKIFHPNIDEASGTVCLDVINQTWTALYDLTNIFESFLPQLLAYPNPIDPLNGDAAAMYLHRPEEYKQKIKEYIQKYATEEALKEQEEGTGDSSSESSMSDFSEDEAQDMEL
modifications: single catalytic cysteine labelled with TDMA 1 (thioacrylonitrile)
notes: also called UBE2H-=CN
Take B6: the binding result in assay [3] is “binds”.

B7: UBE2H thiomethyl acrylate probe (enzyme)
chain: B6 chain
modifications: single catalytic cysteine labelled with TDMA 2 (thiomethyl acrylate)
notes: also called UBE2H-VME
On to B7, for which, in assay [3], the binding result is recorded as “binds”.
